Results taken from patent US20250019430A1 (published 2025).

T1: RETN-flag-His (human, UniProt Q9HD89 19-108)
T1 chain: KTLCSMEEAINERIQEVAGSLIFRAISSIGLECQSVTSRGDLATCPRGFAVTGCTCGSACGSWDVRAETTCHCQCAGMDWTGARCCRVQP

B1: 5A2-LS-2E10 (antibody, V domains shown)
VH: QVQLVQSGAEGRKPGSSVKVSCKVSGDTFSSYAISWVRQAPGQGLEWMGGIIPIFGAADYAQKFKGRVTISADESTSTAYMELSSLRSEDTAVYYCAKGPDYYGSFDPWGQGTLITVSS
VL: DIQMTQSPSSLSASVGDRVTITCRTSQTITNYLNWYQQKPGRAPKLLIFDASNLETGVPSRFSGSGSGTDFTLTISSLQPEDFATYFCQQSYNPGYTFGQGTKLEIKR
B2: 5A2-LS-2G03 (antibody, V domains shown)
VH: B1 VH
VL: DIQMTQSPSSLSASVGDRVTITCQASQHVSSYLNWYQQKPGKAPKLLIYAASNLQSGVPSRFSGSGSGTDFTLTISSLQPDDFATYYCQQYDSYSSVYTFGPGTKLDIKR
B3: 5A2-LS-2H10 (antibody, V domains shown)
VH: B1 VH
VL: NFMLTQPASVSGSPGQSITISCTGSSSDVGGYNYVTWYQQHPGKAPQLIIYDVTKRPSGVSNRFSGSKSGNSASLTISGLQAEDEADYYCSSYSSSTFYVFGTGTKVTVLR
B4: RETN-5A2 (antibody, V domains shown)
VH: B1 VH
VL: DIQMTQSPSFLSASVGDRVTITCRASQYIGTYLAWYQQQPGKAPKLLIYGASILQNGVPSRFSGSASGTEFTLTISSLQPEDFATYYCQQADSFPLTFGGGTKVDIKR
B5: 5A2-LS-2B02 (antibody, V domains shown)
VH: B1 VH
VL: DIQMTQSPGTLSLSAGERATLSCRASQSVRGSYLAWYQQKPGQAPRLLIYGTSSRAPGIPDRFSGSGSGTDFTLTISSLEPEDFAVYYCQQRGDWLYTFGQGTKVEIKR
B6: 5A2-LS-2D07 (antibody, V domains shown)
VH: B1 VH
VL: QSALTQPASVSGSPGQSVTISCTGTSSDIGRYNRVSWYQHHPGKAPKLIIYDVSNRPSGVSNRFSGSKSGNTASLTISGLQAGDESDYYCSAYTRSSTWVFGGGTKLTVLR
B7: 5A2-LS-1F11 (antibody, V domains shown)
VH: B1 VH
VL: not shown
B8: 5A2-LS-2F11 (antibody, V domains shown)
VH: B1 VH
VL: DIQMTQSPSSLSASVGDRVTITCRASQSIGTYLNWYQQKPGKAPKLLIYDASSLEDGVPSRFSGSGSGTDFTLTISSLQPEDSATYYCQQSYTMPLYTFGQGTKLEIKR
B9: 5A2 (antibody, V domains shown)
VH: B1 VH
VL: B4 VL

How the values were obtained:
Assay in all cases: Octet BLI
RETN-His (#S0995) = biological target: RETN-His (#S0995)
RETN-flag-His = biological target: T1, RETN-flag-His
RETN-C-His (#S0995) = biological target: RETN-C-His (#S0995)

Row | Binder | Kd (RETN-His (#S0995)) | Kd (RETN-flag-His) | Kd (RETN-C-His (#S0995))
1 | B1 | 0.419 nM |  | 
2 | B2 | 0.311 nM |  | 
3 | B3 | 0.538 nM |  | 
4 | B4 |  | 2.1 nM | 
5 | B5 | 0.452 nM |  | 
6 | B6 | 0.49 nM |  | 
7 | B7 | 0.958 nM |  | 
8 | B8 | 0.443 nM |  | 
9 | B9 | 1.17 nM |  | 2.14 nM
